Assays:
[1] = target: COBRA P1 HA N127D mutant, CHO expressed, for binding assays; assay: BLI; Octet RED384; HA loaded on anti-Penta-His biosensors (10 μg/mL), Fab 1F8 15 nM to 0.556 nM in solution; PBS, 1% BSA, 0.05% Tween 20; 30 °C; 1:1 model with mass transport limitation; mean of two independent experiments
[2] = target: COBRA P1 HA wild type, CHO expressed, for binding assays; assay: as above

B1: Fab 1F8 (recombinant Fab of the P1-elicited mouse monoclonal antibody 1F8) (Fab, V domains shown)
VH: QVQLQQSGAELMKPGASVKISCKATGYTFSSYWIEWVKQRPGHGLEWIGEILPGSGRTNYDERFKGKATFTADTSSNTAYMQLSSLTSEDSAVYYCARPRIYGMDYWGQGTSVTVSS
VL: DIVLTQSPASLAVSLGQRATISCKASQSVDFDGDTYMSWYQQKPGQPPKLLIYAASKLESGIPARFSGSGSGTDFTLNIHPVEEEDAATYFCQQSNEDPWTFGGGTKLEIK
Q: Which Kd [1] does the source give for B1 here?
A: 0.86 nM

Q: What about the Kd [2] of the same binder?
A: 2.95 nM
